According to publication PMC8359418, “Genome‐wide analysis of in vivo CcpA binding with and without its key co‐factor HPr in the major human pathogen group A Streptococcus” (Molecular Microbiology, 2020):

B1: HPr endogenous in GAS strains MGAS2221 and 2221-CcpA-V301A (natural protein)
chain: MASKDFHIVAETGIHARPATLLVQTASKFASDITLDYKGKAVNLKSIMGVMSLGVGQGADVTISAEGADAEDAIAAIEETMTKEGLA
notes: Phosphocarrier protein HPr (ptsH) of Streptococcus pyogenes serotype emm1 strain MGAS2221 and its isoallelic derivative; Detected with an anti-HPr antibody; the phosphorylation state of the co-precipitated HPr was not determined (by Phos-tag gels most cellular HPr was unphosphorylated); also called HPr~P; source: endogenous, lysates of cross-linked MGAS2221 and 2221-CcpA-V301A cells

Tests used:
[1] = target: recombinant wild type GAS CcpA (catabolite control protein A) (group A Streptococcus (Streptococcus pyogenes)); test: SPR; CcpA (3,700 RU) or CcpAV301A (4,200 RU) immobilised on CM5 by amine coupling; HPr or HPrSer46~P injected, 2-fold dilutions 1.25 to 80 uM; PBS pH 7.4, 25°C; steady-state responses fitted to a one-site binding model; BIAcore T200
[2] = target: recombinant GAS CcpA with V301A change (group A Streptococcus (Streptococcus pyogenes)); test: as above
[3] = target: T1, CcpA endogenous in GAS strain MGAS2221 (Streptococcus pyogenes (endogenous in …, UniProt Q9A118 1-333)); test: co-IP; GAS strains grown to mid-exponential phase in THY, cross-linked with EGS and formaldehyde, sonicated; precipitated with polyclonal anti-CcpA antibody, Western blot with anti-HPr antibody, quantified (Odyssey); settings: partners not purified
T1 construct: Catabolite control protein A (CcpA) of Streptococcus pyogenes serotype emm1 strain MGAS2221 (gene content identical to MGAS5005); also called wild type CcpA; source: endogenous, lysate of cross-linked MGAS2221 cells

Row | Molecule | Kd [1] [µM] | Kd [2] [µM] | fold more HPr co-immunoprecipitated than from strain 2221-CcpA-V301A [3] [fold]
1 | recombinant GAS HPr (histidine-containing protein), unphosphorylated (natural protein) | 188 | – | –
2 | recombinant GAS HPr phosphorylated at Ser46 (natural protein) | 5.8 | 153 | –
3 | B1 | – | – | 10
